This is an account of results in the DeepSol protein solubility set.

The data set can be described thus: soluble on expression in E. coli; label from the status in PepcDB or PDB records.
For the sequence “MNFLDAVYNAGVVGAGGAGFPTHLKMTKEVGTFIVNGAECEPLLEVDKFLMREKTYELIKGMEIIAGNLKAARVVLGLKKKYKVEIKKLSETIKELDSNVELFLMDNFYPAGDEQIMVKDITGKSIPAGGIPLDVDTVVSNVGTVINVYEAIEEKPVTKKYVSVLGEVNNPVMLEVPIGTSFEECIKRAGGVKIKNYAVIEGGPMMGKIVHRDELAEKAVIKTTGALIILPEDHYVIKRKERPEAHILNESRAACIQCRMCTDMCPRYLIGHKLRPHRVMRAMGMGEQDEEILKEALICCECNVCELFACPMGISPKSTNTYLKGVFREKGVRYDGNKEIPSEHEMRDYRKIPVNRLIARLNLSRYYNNKVADLQELKADKVKIFLSQHIGKPAVPLVKEGDRVIEGQRIAEVGREEFGANIHASINGVVTKVEKSYIEIDGMV”, the “soluble on expression in E. coli” value is recorded as “not soluble”.
The value for “MNFQKLLKEAQKAQKKAAEVQERLERMTVVGSAQGLVEVEANGHGKILALRLKPEALKAFQDDPEGLEDLLLVAIQDAQTKAHELSEKEMAKELGGVGQMLGKLF” was “soluble”; that for “MNFRTGQPSDAAALAAISIEVWLGTYMRKGVSAFFAEYALNEFTSTKMASLLKDPNEHVIVSENEGGIDAFIRLGQGRAAPVSGCSTLEIATLYVQPRHHRRGLGRALLEQGLAYARQASAPSVWLTTNSENAPAIAFYLEQGFEKVGTTHFNIGDQAYLNDVFRRIVSM” was “soluble”; that for “MNFTRLLNQVLSTVQKKGNTFSDSPLNSFGGGALVAGVASMLLNGKNRKTITKIGSTAALGYLAYRGYQMWQQNKGRATVTQSDFQPAGETEETYSRTVLRTMIAAAASDGMIDEAERRTIEQESGTDPETAAWLAAEYRLPASIEDIAAAVGNDEALAAEAYLAARLVCADLSRKETVFLARLSQALKLDDNLVESLERQLGF” was “not soluble”.
The value for “MNGIHDVGGMDGFGKVMYVKEEEDIYFTHDWERLALGLVAGCMAQGLGMKAFDEFRIGIELMRPVDYLTSSYYGHWIATVAYNLVDTGVLDEKELDERTEVFSKKPDTKIPRREDPALVKLVEKALNDGLSPLREISASPRFKVGERIKTKNIHPTGHTRFPRYARDKYGVIDEVYGAHVFPDDAAHRKGENPQYLYRVRFEAEELWGYKQKDSVYIDLWESYMEPVSH” was “soluble”; that for “MNGNHSAPAIAIAVIDGCDGLWREVLLGIEEEGIPFRLQHHPAGEVVDSAWQAARSSPLLVGIACDRHMLVVHYKNLPASAPLFTLMHHQDSQAHRNTGNNAARLVKGIPFRDLNSEATGEQQDE” was “soluble”; that for “MNHKVHHHHHHIEGRHMKVLILGAGNIGRAIAWDLKDEFDVYIGDVNNENLEKVKEFATPLKVDASNFDKLVEVMKEFELVIGALPGFLGFKSIKAAIKSKVDMVDVSFMPENPLELRDEAEKAQVTIVFDAGFAPGLSNILMGRIFQELDLKEGYIYVGGLPKDPKPPLYYKITWSPRDLIEEYTRPARVIRNGKVSKVDPLSEVKKVKIGKFEFEAFISDGLRSMLETINSERLEEWTLRWPGHLEKIKVLRELGFFKPENLDFTLRVIEPLMRYETKDFSIMKVVGKGEEGEMEFFLYDEEDSMFSSMSRVTGFTAAIISRIVAENTCTFGVIPPEILGMREDTFRRIIDELKERGISIEGT” was “soluble”.
The value for “MNHLGKTEVFLNRFALRPLNPEELRPWRLEVVLDPPPGREEVYPLLAQVARRAGGVTVRMGDGLASWSPPEVLVLEGTLARMGQTYAYRLYPKGRRPLDPKDPGERSVLSALARRLLQERLRRLEGVWVEGLAVYRREHARGPGWRVLGGAVLDLWVSDSGAFLLEVDPAYRILCEMSLEAWLAQGHPLPKRVRNAYDRRTWELLRLGEEDPKELPLPGGLSLLDYHASKGRLQGREGGRVAWVADPKDPRKPIPHLTGLLVPVLTLEDLHEEEGSLALSLPWEERRRRTREIASWIGRRLGLGTPEAVRAQAYRLSIPKLMGRRAVSKPADALRVGFYRAQETALALLRLDGAQGWPEFLRRALLRAFGASGASLRLHTLHAHPSQGLAFREALRKAKEEGVQAVLVLTPPMAWEDRNRLKALLLREGLPSQILNVPLREEERHRWENALLGLLAKAGLQVVALSGAYPAELAVGFDAGGRESFRFGGAACAVGGDGGHLLWTLPEAQAGERIPQEVVWDLLEETLWAFRRKAGRLPSRVLLLRNGRVPQDEFALALEALAREGIAYDLVSVRKSGGGRVYPVQGRLADGLYVPLEDKTFLLLTVHRDFRGTPRPLKLVHEAGDTPLEALAHQIFHLTRLYPASGFAFPRLPAPLHLADRLVKEVGRLGIRHLKEVDREKLFFV” was “soluble”; that for “MNIATRPADYWQAIIFDFDGVIVESGDIKAQAFAELYRHHGETIAQAAVTYHRANGGMSRYLKFHYFQQNLLNYPPLTKEEEQELDRRFSELVMNAVISCQPVAGAEALLHRMVDQIPLFVASGTPESELRIIVEQRDLSRYFTEVRGSPRLKETLVADILSAYPLVPERVLMIGDALVDYESAHQNGIAFLGRVRPGDDNPFPESVEIVPDLCPVAI” was “soluble”; that for “MNIEEFTSGLAEKGISLSPRQLEQFELYYDMLVEWNEKINLTSITEKKEVYLKHFYDSITAAFYVDFNQVNTICDVGAGAGFPSLPIKICFPHLHVTIVDSLNKRITFLEKLSEALQLENTTFCHDRAETFGQRKDVRESYDIVTARAVARLSVLSELCLPLVKKNGLFVALKAASAEEELNAGKKAITTLGGELENIHSFKLPIEESDRNIMVIRKIKNTPKKYPRKPGTPNKSPIEG” was “soluble”.
As for “MNIELLQQLCEASAVSGDEQEVRDILINTLEPCVNEITFDGLGSFVARKGNKGPKVAVVGHMDEVGFMVTHIDESGFLRFTTIGGWWNQSMLNHRVTIRTHKGVKIPGVIGSVAPHALTEKQKQQPLSFDEMFIDIGANSREEVEKRGVEIGNFISPEANFACWGEDKVVGKALDNRIGCAMMAELLQTVNNPEITLYGVGSVEEEVGLRGAQTSAEHIKPDVVIVLDTAVAGDVPGIDNIKYPLKLGQGPGLMLFDKRYFPNQKLVAALKSCAAHNDLPLQFSTMKTGATDGGRYNVMGGGRPVVALCLPTRYLHANSGMISKADYEALLTLIRGFLTTLTAEKVNAFSQFRQVD”, the “soluble on expression in E. coli” value is given as “not soluble”.
The value for “MNIKSLQLFIHLCESKSFAKTAAAMHISPSALSRQIQKLEEETNQQLFVRDNRSVELTTQGKKLMPVALKILSEWQQYQNHIKGTEGELKGEIRLFCSVTASYSHLPELISDFRLQHPFIEFKLSTGDPAQAIDKILADEADIAISAKSEQMPNKIAFET” was “not soluble”.
For “MNINKKVTLQRIQTLTELHGAPGFEEEVKNYMTQQMAPYVDEFIENRMGGFFGVKKSKNPNAKRVMIAAHMDEIGFMITNITKNGMIQFTNLGGVANDIWQGQRLVIKNRNGDKIIGVVSNIPKHFRTGSEGAPEIKDLTLDIGAQNEDEVRERGIDIGDTIVPHTPFTQLSEHRYSAKAWDNRYGCVLAIEILELLKDIELDVDLYVGANVQEEVGLRGAKASAEMIDPDVAFVVDCSPANDVKGNQPLSGELGKGTLIRIKDGTMILKPVFRDYLLKLVEAHDIEHQYYMSPGGTDGGEIHKANIGIPTAVIGVCARYIHSTDSVFDIRDYFAARSLLSEAICNLDNNQIETLQYK” the value was “not soluble”.
Regarding “MNIQNPVLKGFNPDPSIVRAGDDYYIATSTFEWFPGVQIHHSKDLVHWHLVAHPLSTTEFLDMKGNPDSGGIWAPDLSYADGKFWLIYTDVKVVDGMWKDCHNYLTTAEDIKGPWSKPILLNGAGFDASLFHDPSGKKYLVNMYWDQRVYHHNFYGIALQEYSVAEEKLIGKPEIIYKGTDIAYTEGPHLYYINDMYYLMTAEGGTTYQHSETIARSKTIHGPYEIQPDYPLLSAWKEVHNPLQKCGHASLVETQNGQWYLAHLTGRPLPAPAGFPSREREQHAFCPLGRETAIQKIEWQDGWPVVVGGQQGSLEVEAPDLPQQEWAPTYEERDDFDKDTLNINFQTLRIPFSEHLGSLTARPGFLRLYGRESLQSKFTQAHIARRWQSFNFDAGTSVEFSPNSFQQMAGLTCYYNTENWSSIHVTWNEEKGRIIDLVTADNGTFSMPLAGAEIPIPDEVKTVHFKVSVRGRIYQYAYSFDGETFHTLPIELPSWKLSDDYVRGGGFFTGAFVGINAIDITGTALPADFDYFTYKELD”, the “soluble on expression in E. coli” value is “soluble”.
For “MNITFKFNFMSYKHYFSPKHKPEITQAITITEPAIIFRLNKTYSTNLSQQEIYDITRSDWILGHRREKAEYGFAAFKGVVLQVYRIDRWDFSGKVTDVGRQRWFFEGKVATEMQDYINGNISHYFKKGDRSPTKYLNCLEHHHHHH” the value was “not soluble”; for “MNITQAAEQAIRLWFNTPDPMQRLHMAKTIRTWIRQDKFAQVDQANMPNCVQQILNIIYDGLKPQPVQLPISYYAQLWYNLLDILRRFTFLPIISPYIHQVVQMFCPRENGPQDFRELICNLISLNWQKDPHMKHCANQVFQIFNCIIMGVKNEKLRTEFAQHLKFEKLVGTLSEYFNPQVHPGMINPAIFIIFRFIISKDTRLKDYFIWNNNPHDQPPPPTGLIIKLNAVMIGSYRLIAGQNPETLPQNPELAHLIQVIIRTFDLLGLLLHDSDAIDGFVRSDGVGAITTVVQYPNNDLIRAGCKLLLQVSDAKALAKTPLENILPFLLRLIEIHPDDEVIYSGTGFLSNVVAHKQHVKDIAIRSNAIFLLHTIISKYPRLDELTDAPKRNRVCEIICNCLRTLNNFLMMWIPTPNGETKTAGPNEKQQVCKFIEIDILKKLMSCLSCEGMDTPGLLELRSTILRSFILLLRTPFVPKDGVLNVIDENRKENLIGHICAAYSWVFRQPNNTRTQSTKQQLVERTISLLLVLMEQCGAEKEVAQYSYSIDCPLNLLNGNQVKPTFIHNVLVVCDKILEHCPTRADIWTIDRPMLEGLTNHRNSDIAKAANSLLSRFPEN”, “soluble”.
The value for “MNIVITGGTGLIGRHLIPRLLELGHQITVVTRNPQKASSVLGPRVTLWQGLADQSNLNGVDAVINLAGEPIADKRWTHKQKERLCQSRWNITQKLVDLINASDTPPSVLISGSATGYYGDLGEVVVTEEEPPHNEFTHKLCARWEEIACRAQSDKTRVCLLRTGVVLAPDGGILGKMLPPFRLGLGGPIGSGRQYLAWIHIDDMVNGILWLLDNELRGPFNMVSPYPVRNEQFAHALGHALHRPAILRVPTTAIRLLMGESSVLVLGGQRALPKRLEEAGFAFRWYDLEEALADVVR” was “not soluble”.
With “MNKAINIKKTAPLEVLHSELPYTQDPTALFHALCAGRSDCLLLESAEIDSKQNLKSLLLVDAAVRIVCEGHQVTYHALSANGQALLNIIHSNLTDRIPCKVEKAKLTLTFSTPCDTLDEDSRLREASSFDALRLVQHSFDLTDHGKFALFLGGLFAYDLVANFEPLGEAPADNQCPDYVFYVAETLMVIDHQRETCQLQATQFQPGDALHSQLKSRMREIRAQVNQKLPLPSAQSLSDVEVTTNISDAAFCDIVRDLKQYVVKGDVFQVVPSRRFRLPCPSPLAAYQRLKQSNPSPYMFYMQDERFTLFGASPESALKYEMHTNQVEIYPIAGTRRRGKRADGSIDFDLDSRIELELRTDKKENAEHMMLVDLARNDVARISQAGTRHVADLLQVDRYSHVMHLVSRVVGQLREDLDALHAYQACMNMGTLTGAPKIRAMQLIRDVEQARRGSYGGAVGYLTGEGDLDTCIVIRSAYVENGIAQVQAGAGVVYDSDPQAEADETRGKAQAVISAILYAHQGKE”, the “soluble on expression in E. coli” value is listed as “not soluble”.
The value for “MNKAYYIGLMSGTSMDGVDAVLVDFAGEQPQLIGTHTETIPTHLLKGLQRLCLPGTDEINRLGRLDRSVGKLFALAVNNLLAKTKIAKDEIIAIGSHGQTVRHMPNLEVGFTLQIGDPNTIATETGIDVIADFRRKDIALGGQGAPLVPAFHQQTFAQVGKKRVILNIGGIANITYLPGNSEEVLGFDTGPGNTLIDAWVQQVKNESYDKNGAWAASGKTDPQLLAQLLSHPYFSLAYPKSTGRELFNQAWLEQQLSAFNQLNEEDIQSTLLDLTCHSIAQDILKLAQEGELFVCGGGAFNAELMQRLAALLPGYRIDTTSALGVDPKWAEGIAFAWLAMRYQLGLPANLPAVTGASREAILGGRFSAK” was “soluble”.
